According to patent US20210214458A1 (ONCOC4, published 2021):
Changes are numbered by the printed parent chain.

Key:
[1] = molecular target: T1, CD24-GST fusion protein; experiment: ELISA on coated CD24-GST with expression media, relative to chimeric PP6373 (FIG. 28)
T1 construct: also called biotinylated CD24-GST; not shown: GST (glutathione S-transferase) fusion partner
Procedure: To select the best working combination of HuVH and HuVL for CD24 binding, different combinations were co-transfected into 293 cells for 72 hrs. Two ELISAs are then performed with expression media. ELISA 1: a 96 well plate was coated with purified goat-anti-human polyclonal IgG (GAH) and, after blocking, expression media or purified control IgGs were added, and goat-anti-human IgG-HRP was used as detection antibody. ELISA 2: a 96 well plate was coated with CD24-GST protein and, after blocking, expression media or purified control IgGs were added, and goat-anti-human IgG-HRP was used as detection antibody.

[2] = molecular target: T2, N-SA-CD24 (CD24 stripped of N-glycan and sialic acid modifications) (not fully specified; N-glycans and sialic acid removed; O-glycans present; biotinylated in the Jurkat bispecific assays); experiment: ELISA titration on coated Fc removed CD24 treated with NanA + N-glycanase (FIG. 8)
T2 construct: also called SA-N-CD24; SA-N-
T2 chain: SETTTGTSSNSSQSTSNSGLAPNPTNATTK

B1: H1L3 (humanized PP6373) (antibody, V domains shown)
VH: EVQFVESGGGLVQPGGSLKLSCAASGVTFSEAWMDWVRQASGKGLEWVGEIRDKPNSYVTYYAESVKGRFTISRDDSKNTAYLQMNSLKTEDTAVYYCTGAMDYWGQGTLVTVSS
VL: DIVMTQTPLSLSVTIGQPASISCKSSQSLLYSNGKTYLNWLLQKPGQSPKRLIYQVSKLDPGIPDRFSGSGSETDFTLKISRVEAEDVGIYYCMQGSSLPWTFGGGTKVEIKR
notes: Tested as expression medium of co-transfected 293 cells
[1]
  binding result: binds

B2: PP6373 (affinity matured chimeric anti-CD24 antibody) (antibody, human IgG1, kappa, V domains shown)
VH: EVKFEESGGGLVQPGGSIKLSCAASGVTFSEAWMDWVRQSPEKGLEWVAEIRDKPNSYVTYYAESVKGRFTISRDDSKSRVYLQMNNLRTEDTGIYYCTGAMDYWGQGTSVTVSS
VL: B1 VL with L42Q, K44R, V88L, V109L
notes: also called P3050.ComF1.2H1; H4069 + L4071
[2]
  fold increase of binding against the parental antibody: ~100 fold

B3: H4L3 (humanized PP6373) (antibody, V domains shown)
VH: B1 VH with G49A, N79S, A81V, V95I
VL: B1 VL
notes: as for B1
[1]
  binding result: binds
